Data on four molecules can be found in US20110123546A1 (published 2011).

The labels stand for the following.
B1: VHH1 (VHH)
VHH: QVQLQDSGGGLVQAGDRLSLSCAASGRTFSSYDMAWFRQAPGKEREFVAAITTSEGTWYGDAGKGRFTIARVNAKNTVYLHMNRLKPEDTAVYYCAASNQGGSLQISTNYNYWGQGTQVTVSS
B2: VHH2 (VHH)
VHH: QVQLQESGGGLVQAGDSLRLSCAASGRTFSSYAMGWFRQAPGKEREFVAAVSSSNSPWYGDSIKGRSTIHRDNAKNTVYLYMNNLKPEDTAVYYCAADLEGERLGESSEYDYWGQGTQVTVSS
B3: VHH15 (VHH)
VHH: QVQGAGLWGGLVQLGGSLRLSCAASGFTFGYYAMSWVRQAPGKGLEWVSYINDNGGYTAYTDPVKGRFTISRDNAKNILYLHMNNLKPEDTAVYFCAKWGTDAVSSSRYKSHDYDSRGPGTQVTVSS
B4: VHH3 (VHH)
VHH: QVQLQESGGGLVQPGGSLRLSCAASGFTFKYYAMSWVRQAPGKGLEWVSYINDNGGYTDYSDSVKGRFTISRDNAKNTLYLHMNRLKPEDTAVYFCAKWDTDAVSSSRYKTHNGDIRGPGTQVTVSS

The target of the assay is rhesus rotavirus strain RRV. The experiment in a line: cell-based or functional assay.
Turning to B1, the “% infection of MA104 cells relative to irrelevant VHH (NSP4 Western blot densitometry)” value is 40%.

With B2, the “% infection of MA104 cells relative to irrelevant VHH (NSP4 Western blot densitometry)” value turned out to be 40%.

With B3, the “% infection of MA104 cells relative to irrelevant VHH (NSP4 Western blot densitometry)” value was 40%.

Take B4: the “% infection of MA104 cells relative to irrelevant VHH (NSP4 Western blot densitometry)” value worked out at 40%.
